In US9150649B2, “Potent conjugates and hydrophilic linkers” (priority 2008, dated 2015):

Settings: mouse, in vivo, iv, 12 mg/kg
Description: CD1 mice were injected intravenously, by a single bolus, of 5 mg/kg conjugates (antibody-based dose; 3 mice per group). Plasma samples were collected at several time points up to 4 weeks. The plasma samples were analyzed for antibody concentration and for conjugate concentration using ELISA. For antibody ELISA, the plasma samples were added to microtiter plates containing coated, immobilized goat-anti-human IgG (H+L) antibody, washed, and detected using horseradish peroxidase-conjugated goat-anti-human IgG (Fe) antibody. For conjugate concentration, the plasma samples were added to microtiter plates containing coated, immobilized goat-anti-human IgG (H+L) antibody, washed, and detected using biotinylated anti-maytansine antibody and alkaline phosphatase-conjugated streptavidin.

B1: unconjugated antibody: unconjugated humanized C242 antibody, binds the CanAg antigen (antibody, chains of the INN, looked up, V domains shown)
VH: QVQLVQSGAEVKKPGETVKISCKASDYTFTYYGMNWVKQAPGQGLKWMGWIDTTTGEPTYAQKFQGRIAFSLETSASTAYLQIKSLKSEDTATYFCARRGPYNWYFDVWGQGTTVTVSS
VL: DIVMTQSPLSVPVTPGEPVSISCRSSKSLLHSNGNTYLYWFLQRPGQSPQLLIYRMSNLVSGVPDRFSGSGSGTAFTLRISRVEAEDVGVYYCLQHLEYPFTFGPGTKLELK
- area under the curve (AUC): 38798 µg·h/mL
